The values below come from the Human Domainome abundance scans (Beltran et al. 2025).

± gives the uncertainty stated by the source.

B1: Zinc finger MYM-type protein 2, residues 463 to 506; numbered along this chain, Q9UBW7 (parent)
chain: IMNCCEQCGEYLPSKGAGNNVLVIDGQQKRFCCQSCVSEYKQVG

The variants in this data set derive from B1. As to the kind of experiment: abundance fitness (aPCA) (normalised: wild type 0, dead -1); higher = more abundant; growth selection in yeast, the domain comes from the species named. Particulars: Homo sapiens.
As to I1N, the abundance fitness turned out to be 0.097 ± 0.1.

For the variant I1E, the abundance fitness was -0.012 ± 0.14.

In the case of I1W, the abundance fitness is -0.746 ± 0.13.

Turning to P13K, the abundance fitness is -0.678 ± 0.45.

For the variant P13C, the abundance fitness turned out to be 0.105 ± 0.43.

Take P13Q: the abundance fitness was -0.063 ± 0.11.

Regarding Q34I, the abundance fitness was -0.448 ± 0.21.

With Q34L, the abundance fitness was -0.223 ± 0.097.

Consider Q34D, for which the abundance fitness came out at 0.013 ± 0.12.

Regarding V21W, the abundance fitness is -0.02 ± 0.11.

Regarding V21N, the abundance fitness was -0.397 ± 0.47.

On to V21R, for which the abundance fitness was -0.264 ± 0.086.

Take V21M: the abundance fitness was -0.103 ± 0.11.

As to C36H, the abundance fitness is -0.341 ± 0.3.

Take D25C: the abundance fitness was -0.25 ± 0.12.

D25M: the abundance fitness is -0.35 ± 0.32.

With D25V, the abundance fitness is -0.51 ± 0.094.

Consider C8Q, for which the abundance fitness is -0.573 ± 0.4.

Take C8P: the abundance fitness was -0.775 ± 0.097.

On to C8L, for which the abundance fitness was -1.05 ± 0.11.

Regarding C8A, the abundance fitness is -0.505 ± 0.083.

As to S14Q, the abundance fitness is -0.123 ± 0.12.

In the case of S14W, the abundance fitness was -0.454 ± 0.092.

For the variant S14C, the abundance fitness is -0.072 ± 0.16.

In the case of G44E, the abundance fitness was -0.172 ± 0.15.

G44T: the abundance fitness is -0.118 ± 0.096.

Turning to V23S, the abundance fitness worked out at 0.025 ± 0.12.

On to V23L, for which the abundance fitness is -0.235 ± 0.1.

In the case of V23A, the abundance fitness was -0.121 ± 0.11.

In the case of V23G, the abundance fitness is -0.107 ± 0.076.

For the variant V23T, the abundance fitness came to 0.15 ± 0.13.

As for C5I, the abundance fitness is -1.08 ± 0.2.

Turning to C5L, the abundance fitness was -0.922 ± 0.12.

As to C5A, the abundance fitness is -0.65 ± 0.09.

C5T: the abundance fitness is -0.587 ± 0.13.

For C5S, the abundance fitness is -0.524 ± 0.11.

In the case of G16M, the abundance fitness amounted to 0.007 ± 0.29.

In the case of G16Q, the abundance fitness was found to be 0.07 ± 0.1.

For the variant G16H, the abundance fitness is -0.249 ± 0.099.

With G16L, the abundance fitness is -0.214 ± 0.08.

For G16V, the abundance fitness is -0.272 ± 0.14.

Turning to G16T, the abundance fitness was 0.202 ± 0.18.

As for R30V, the abundance fitness was found to be 0.197 ± 0.075.

K15G: the abundance fitness was 0.103 ± 0.075.

For the variant K15D, the abundance fitness worked out at 0.229 ± 0.18.

Take K15W: the abundance fitness was -0.124 ± 0.093.

As to E6N, the abundance fitness is -0.241 ± 0.19.

Turning to E6D, the abundance fitness turned out to be 0.071 ± 0.13.

For E6H, the abundance fitness was -0.256 ± 0.12.

E6F: the abundance fitness was -0.229 ± 0.22.

For the variant Y11M, the abundance fitness is -0.099 ± 0.12.

Consider Y11W, for which the abundance fitness was -0.237 ± 0.075.

For Y11Q, the abundance fitness came to 0.313 ± 0.11.

In the case of Y11N, the abundance fitness is 0.28 ± 0.097.

On to Y11P, for which the abundance fitness came out at 0.144 ± 0.088.

In the case of Y11T, the abundance fitness was 0.319 ± 0.098.

K41R: the abundance fitness worked out at 0.03 ± 0.086.

In the case of K41V, the abundance fitness was -0.221 ± 0.094.

As to G9L, the abundance fitness was -0.289 ± 0.1.

G9I: the abundance fitness was -0.417 ± 0.17.

As for S38W, the abundance fitness was -0.197 ± 0.092.

On to E39L, for which the abundance fitness is -0.265 ± 0.14.

In the case of E39Q, the abundance fitness is -0.144 ± 0.2.

In the case of E39Y, the abundance fitness was 0.032 ± 0.15.

Turning to E39A, the abundance fitness is 0.09 ± 0.076.

Consider A17P, for which the abundance fitness was -0.274 ± 0.11.

Turning to A17L, the abundance fitness was -0.188 ± 0.091.

In the case of A17Q, the abundance fitness is -0.069 ± 0.1.

For Q7H, the abundance fitness was -0.076 ± 0.12.

With Q7N, the abundance fitness is -0.436 ± 0.27.

On to Q7Y, for which the abundance fitness is -0.222 ± 0.13.

In the case of Q7A, the abundance fitness was -0.09 ± 0.089.

On to Q7K, for which the abundance fitness is -0.135 ± 0.26.

In the case of Q7L, the abundance fitness was -0.226 ± 0.076.

Consider Q7R, for which the abundance fitness was -0.019 ± 0.08.

Take C33R: the abundance fitness is -0.121 ± 0.089.

As for C33D, the abundance fitness was 0.051 ± 0.11.

For the variant C33A, the abundance fitness is -0.017 ± 0.093.

C33F: the abundance fitness is -0.517 ± 0.18.

Take C33P: the abundance fitness is -0.342 ± 0.09.

Y40T: the abundance fitness is 0.11 ± 0.11.

On to Y40D, for which the abundance fitness was -0.057 ± 0.18.

As to Y40W, the abundance fitness was 0.002 ± 0.11.

Consider Y40E, for which the abundance fitness amounted to 0.067 ± 0.096.

As to Q28L, the abundance fitness was -0.346 ± 0.12.

Take Q28V: the abundance fitness is -0.169 ± 0.099.

Turning to Q28G, the abundance fitness is -0.239 ± 0.072.

Regarding C32S, the abundance fitness was -0.398 ± 0.084.

Take C32V: the abundance fitness was -0.36 ± 0.077.

For C32K, the abundance fitness is -0.439 ± 0.13.

In the case of C32Y, the abundance fitness is -0.634 ± 0.33.

As for C32E, the abundance fitness is -0.339 ± 0.085.

C32N: the abundance fitness was -0.655 ± 0.26.

C4V: the abundance fitness was -0.029 ± 0.078.

C4A: the abundance fitness is -0.147 ± 0.086.

For the variant C4R, the abundance fitness turned out to be 0.012 ± 0.069.

Take C4Y: the abundance fitness is -0.45 ± 0.17.

On to C4N, for which the abundance fitness was found to be 0.214 ± 0.24.

Take C4T: the abundance fitness was -0.021 ± 0.085.

Regarding L12A, the abundance fitness is -0.246 ± 0.091.

Turning to L12G, the abundance fitness was -0.385 ± 0.068.

Take L12W: the abundance fitness was -0.467 ± 0.089.

For L12S, the abundance fitness is -0.501 ± 0.13.

Turning to Q42P, the abundance fitness is -0.169 ± 0.22.

As to Q42H, the abundance fitness was -0.08 ± 0.12.

As for Q42M, the abundance fitness was -0.119 ± 0.17.

With Q42W, the abundance fitness was -0.398 ± 0.14.

For the variant Q42G, the abundance fitness was found to be 0.076 ± 0.077.

On to Q42A, for which the abundance fitness amounted to 0.109 ± 0.078.

With I24K, the abundance fitness is -0.079 ± 0.1.

Turning to I24R, the abundance fitness was -0.085 ± 0.077.

Turning to I24N, the abundance fitness was -0.176 ± 0.2.

As to I24T, the abundance fitness worked out at 0.254 ± 0.15.

As for F31M, the abundance fitness was -0.267 ± 0.075.

For the variant F31G, the abundance fitness was -0.185 ± 0.087.

On to F31R, for which the abundance fitness was -0.366 ± 0.07.

As for F31S, the abundance fitness was -0.231 ± 0.099.

Turning to F31D, the abundance fitness was -0.167 ± 0.096.

With E10N, the abundance fitness is -0.389 ± 0.14.

As to E10T, the abundance fitness is -0.751 ± 0.12.

For the variant N20K, the abundance fitness is -0.209 ± 0.13.

For the variant N19W, the abundance fitness is -0.212 ± 0.11.

Regarding N19S, the abundance fitness was 0.001 ± 0.12.

Take N19M: the abundance fitness was -0.061 ± 0.19.

With N19F, the abundance fitness was -0.023 ± 0.096.

Regarding N19L, the abundance fitness is -0.051 ± 0.1.

With N19Q, the abundance fitness was -0.107 ± 0.12.

Take N19E: the abundance fitness turned out to be 0.338 ± 0.14.

Take V43A: the abundance fitness stood at 0.001 ± 0.084.

Turning to V43P, the abundance fitness turned out to be 0.144 ± 0.22.

As to K29I, the abundance fitness is -0.241 ± 0.14.

Turning to N3K, the abundance fitness is -0.231 ± 0.089.

For the variant N3S, the abundance fitness is -0.141 ± 0.079.

As to N3H, the abundance fitness is -0.154 ± 0.1.

Consider N3C, for which the abundance fitness was -0.215 ± 0.36.

Turning to N3Q, the abundance fitness is -0.232 ± 0.09.

Take N3A: the abundance fitness is -0.09 ± 0.073.

L22V: the abundance fitness is -0.016 ± 0.09.

Turning to L22S, the abundance fitness is -0.164 ± 0.13.

With L22G, the abundance fitness was -0.132 ± 0.068.

Regarding L22Q, the abundance fitness was -0.057 ± 0.13.

Regarding L22R, the abundance fitness is -0.136 ± 0.083.

In the case of L22I, the abundance fitness was -0.142 ± 0.18.

On to V37E, for which the abundance fitness turned out to be 0.109 ± 0.1.

Consider V37G, for which the abundance fitness is -0.226 ± 0.075.

Turning to V37M, the abundance fitness came out at 0.181 ± 0.14.

For V37F, the abundance fitness was -0.259 ± 0.16.

As for M2W, the abundance fitness was -0.687 ± 0.18.

As to M2E, the abundance fitness came out at 0.118 ± 0.12.

Take M2T: the abundance fitness is -0.059 ± 0.097.

M2D: the abundance fitness was -0.049 ± 0.15.

As to G18M, the abundance fitness was -0.214 ± 0.13.

For the variant G18C, the abundance fitness was -0.247 ± 0.15.

As for G18W, the abundance fitness was -0.197 ± 0.092.

With G18S, the abundance fitness is -0.347 ± 0.18.

Turning to Q27A, the abundance fitness is -0.045 ± 0.13.

On to Q27F, for which the abundance fitness is -0.173 ± 0.23.

With Q27G, the abundance fitness was -0.039 ± 0.079.

For Q27P, the abundance fitness was -0.218 ± 0.12.

As for S35R, the abundance fitness was 0.085 ± 0.072.

For S35Y, the abundance fitness is -0.08 ± 0.22.

For S35I, the abundance fitness is 0.024 ± 0.11.

Regarding S35P, the abundance fitness was -0.058 ± 0.13.

As for G26M, the abundance fitness was -0.384 ± 0.15.

For G26Y, the abundance fitness stood at 0.285 ± 0.28.

For G26C, the abundance fitness is -0.059 ± 0.1.

For G26V, the abundance fitness is -0.243 ± 0.1.
